In assay [1] the target is human NPR1 W74R mutant in the presence of ANP (human) (UniProt P01160). Nature of the assay: ELISA, IgG titration, +100 nM ANP.
For assay [2], the target named is human NPR1 expressed on CHO-K1 cells in the presence of ANP (human) (UniProt P01160). Briefly: flow cytometry, 2 uM IgG, +100 nM ANP.
The target of assay [3] is T1, human NPR3 (counter target) (human) (UniProt P17342).
T1 sequence (looked up): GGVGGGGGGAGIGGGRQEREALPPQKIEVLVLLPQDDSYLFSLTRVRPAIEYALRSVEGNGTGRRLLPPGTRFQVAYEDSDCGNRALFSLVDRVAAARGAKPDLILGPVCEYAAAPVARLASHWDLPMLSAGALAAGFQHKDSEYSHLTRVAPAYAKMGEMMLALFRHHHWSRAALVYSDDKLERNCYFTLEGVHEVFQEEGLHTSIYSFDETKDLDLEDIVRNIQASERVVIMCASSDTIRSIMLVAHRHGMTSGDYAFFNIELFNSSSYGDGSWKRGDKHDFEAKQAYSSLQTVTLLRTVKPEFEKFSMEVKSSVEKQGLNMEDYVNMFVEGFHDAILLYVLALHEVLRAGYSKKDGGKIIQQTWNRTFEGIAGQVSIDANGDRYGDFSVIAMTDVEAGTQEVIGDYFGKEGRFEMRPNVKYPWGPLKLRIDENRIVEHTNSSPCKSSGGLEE
Nature of the assay: ELISA, 1 uM IgG.

The target in assay [4] is T2, human NPR3 in the presence of ANP (human) (UniProt P17342).
T2 sequence (looked up): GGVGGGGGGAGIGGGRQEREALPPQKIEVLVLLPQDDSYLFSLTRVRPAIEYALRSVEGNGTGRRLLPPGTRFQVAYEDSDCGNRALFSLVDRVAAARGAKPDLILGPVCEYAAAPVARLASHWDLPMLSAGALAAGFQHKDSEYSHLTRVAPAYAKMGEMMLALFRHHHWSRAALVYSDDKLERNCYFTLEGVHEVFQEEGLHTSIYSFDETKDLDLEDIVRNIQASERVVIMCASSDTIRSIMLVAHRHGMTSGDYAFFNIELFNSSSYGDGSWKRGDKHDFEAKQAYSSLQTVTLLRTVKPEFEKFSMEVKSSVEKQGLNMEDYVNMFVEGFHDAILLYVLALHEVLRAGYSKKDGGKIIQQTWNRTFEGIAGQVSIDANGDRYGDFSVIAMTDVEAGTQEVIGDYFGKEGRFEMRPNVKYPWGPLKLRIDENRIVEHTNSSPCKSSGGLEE
T2 sequence (peptide, looked up): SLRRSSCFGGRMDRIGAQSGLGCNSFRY
Nature of the assay: ELISA, 1 uM IgG, +100 nM ANP.

For assay [5], the target named is human NPR1 W74R mutant in the presence of ANP (human) (UniProt P01160). Nature of the assay: ELISA, 1 uM IgG, +100 nM ANP.
Assay [6] addresses T3, rat NPR1, recombinant antigen (rat) (UniProt P18910).
T3 sequence: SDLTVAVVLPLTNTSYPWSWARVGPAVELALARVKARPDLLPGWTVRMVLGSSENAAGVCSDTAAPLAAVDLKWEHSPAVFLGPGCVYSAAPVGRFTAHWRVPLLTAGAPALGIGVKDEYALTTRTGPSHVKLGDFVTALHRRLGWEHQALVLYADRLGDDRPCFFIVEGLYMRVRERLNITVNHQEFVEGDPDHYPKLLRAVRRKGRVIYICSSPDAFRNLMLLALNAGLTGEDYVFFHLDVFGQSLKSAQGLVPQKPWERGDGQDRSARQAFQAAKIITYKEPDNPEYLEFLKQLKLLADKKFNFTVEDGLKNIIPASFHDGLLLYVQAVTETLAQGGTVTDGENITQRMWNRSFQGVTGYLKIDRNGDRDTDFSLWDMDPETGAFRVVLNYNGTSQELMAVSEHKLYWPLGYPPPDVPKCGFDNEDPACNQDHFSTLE
Nature of the assay: ELISA, 1 uM IgG.

Assay [7] deals with human NPR1 W74R mutant in the presence of ANP (human) (UniProt P01160). Nature of the assay: ELISA, IgG titrated on the antigen with 250 fold molar excess of ANP [cont.].

B1: WW06 IgG (WW06_LALA) (antibody, V domains shown)
VH: QVQLVQSGAEVKKPGESLKISCKGSGYSFTSYWIAWVRQMPGKGLEWMGRIDPDNSYTRYSPSFQGQVTISADKSISTAYLQWSSLKASDTAMYYCARWLSPGYALGEQPAGMDHWGQGTLVTVSS
VL: DIVLTQPPSVSGAPGQRVTISCTGSSSNIGAGYAVHWYQQLPGTAPKLLIYSNNKRPSGVPDRFSGSKSGTSASLAITGLQAEDEADYYCQSYDLQKSSRVFGGGTKLTVLG
For B1, in assay [1], the concentration for a half-maximal effect (EC50) was determined as 0.8 nM. Further, the flow cytometry S/BG in assay [2] was 1.1 S/BG.

B2: YY05 IgG (YY05_LALA) (antibody, V domains shown)
VH: EVQLVQSGAEVKKPGESLKISCKGSGYSFTSYWISWVRQMPGKGLEWMGIIYPGTSYTRYSPSFQGQVTISADKSISTAYLQWSSLKASDTAMYYCARGAVAGQLGFDHWGQGTLVTVSS
VL: QSVLTQPPSVSGAPGQRVTISCTGSSSNIGAGYDVHWYQQLPGTAPKLLIYGNSNRPSGVPDRFSGSKSGTSASLAITGLQAEDEADYYCQSYYTSSHGPVFGGGTKLTVLG
Take B2: the ELISA IgG binding at 1 uM IgG (unit not given) amounted to 7 in assay [3], 4 in assay [4] and 23 in assay [5].

B3: YY07 IgG (YY07_LALA) (antibody, V domains shown)
VH: EVQLVQSGAEVKKPGESLKISCKGSGYSFTSYWISWVRQMPGKGLEWMGIIYPGTSYTRYSPSFQGQVTISADKSISTAYLQWSSLKASDTAMYYCARGSLPGLLGFDHWGQGTLVTVSS
VL: QSVLTQPPSVSGAPGQRVTISCTGSSSNIGAGYDVHWYQQLPGTAPKLLIYGNSNRPNGVPDRFSGSKSGTSASLAITGLQAEDEADYYCQSYDSPTSSSVFGGGTKLTVLG
Regarding B3, the values for the ELISA IgG binding at 1 uM IgG (unit not given) in assay [4] and in assay [5] were 5 and 20, respectively.

B4: YY06 IgG (YY06_LALA) (antibody, V domains shown)
VH: EVQLLESGGGLVQPGGSLRLSCAASGFTFSSYAISWVRQAPGKGLEWVSAISGSGGSTYYAESVKGRFTISRDNSKNTLYLQMNSLRAEDTAVYYCARPYLGDRRSYGFDHWGQGTLVTVSS
VL: QSALTQPASVSGSPGQSITISCTGTSSDVGSYNLVSWYQQHPGKAPKLMIYEGSKRPSGVSNRFSGSKSGNTASLTISGLQAEDEADYYCSSYGFHIVVVVFGGGTKLTVLG
B4: the ELISA IgG binding at 1 uM IgG (unit not given) turned out to be 3 in assay [6], 6 in assay [3], 6 in assay [4] and 86 in assay [5]. Further, the EC50 (read off the curve) in assay [7] is 20 nM.
